IC50 data for one substance are collected here from patent publication US20190062442A1.

For the assay, the target named is FLAG-tagged human PrP^c_N1 (recombinant N-terminal fragment of cellular prion protein, 23-111 amino-acids) (human) (UniProt P04156).
Sequence of FLAG-tagged human PrP^c_N1 (recombinant N-terminal fragment of cellular prion protein, 23-111 amino-acids) (human) (P04156 23-111): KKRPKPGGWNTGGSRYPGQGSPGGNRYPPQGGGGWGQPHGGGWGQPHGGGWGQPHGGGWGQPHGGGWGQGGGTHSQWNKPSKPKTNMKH

On to “anti-CD230 (Prion) antibody 6D11 Mu IgG2a (BioLegend, San Diego, Calif.)”, for which the IC50 was determined as 17.6 nM.
